This passage reports other results from article PMC7886143.

The target of this test is PfPDI8 (PF3D7_0827900), 3xV5-tagged (P. falciparum (3D7)). Nature of the test: co-IP.

With “PfBiP, Hsp70 Binding immunoglobulin Protein (natural protein)”, the other is 2 fold.
